The results in this text go back to article PMC5360024, “The Alzheimer’s disease risk factors apolipoprotein E and TREM2 are linked in a receptor signaling pathway” (Journal of Neuroinflammation, 2017).

Common to all, as to settings: both partners purified
The target in assay [1] is T1, Recombinant human TREM2 (human, UniProt Q9NZC2 19-174).
T1 construct: Triggering receptor expressed on myeloid cells 2 (TREM2), human, recombinant; As I recall, this catalogue item is the extracellular domain with a C-terminal His tag; also called triggering receptor expressed on myeloid cells 2; hTREM2; source: bought: Sino Biological Inc. (#11084-H08H)
T1 sequence (looked up): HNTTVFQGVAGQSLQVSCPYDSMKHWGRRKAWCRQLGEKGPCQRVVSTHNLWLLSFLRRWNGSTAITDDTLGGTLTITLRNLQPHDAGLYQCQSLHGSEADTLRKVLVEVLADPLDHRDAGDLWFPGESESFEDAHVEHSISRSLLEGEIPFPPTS
The assay can be described thus: ELISA; competition: human TREM2 (40 nM) coated; 6 nM ApoE ε2 with 0-6 μM ApoE-mim149 or scrambled peptide, 1 h at RT; bound full-length ApoE detected with polyclonal anti-ApoE; one site-fit Ki. (In general: In an ELISA, binding on a coated surface is turned into a signal by an enzyme label.)

Assay [2] deals with T1, Recombinant human TREM2. Kind of assay: ELISA; competition: human TREM2 (40 nM) coated; 6 nM ApoE ε4 with 0-6 μM ApoE-mim149 or scrambled peptide, 1 h at RT; bound full-length ApoE detected with polyclonal anti-ApoE; one site-fit Ki.
The target in assay [3] is T1, Recombinant human TREM2. Kind of assay: ELISA; competition: human TREM2 (40 nM) coated; 6 nM ApoE ε3 with 0-6 μM ApoE-mim149 or scrambled peptide, 1 h at RT; bound full-length ApoE detected with polyclonal anti-ApoE; one site-fit Ki.

B1: ApoE-mimetic peptide corresponding to amino acids 130–149 (peptide)
peptide: Ac-TEELRVRLASHLRKLRKRLL-NH2
notes: also called ApoE-mim149; source: synthetic peptide, bought: GenScript
By Ki is commonly meant the equilibrium dissociation constant of an inhibitor or competing ligand from its target. On to B1, for which the values for the Ki with Recombinant human TREM2 [1], in the assay with Recombinant human TREM2 [2] and in the assay with Recombinant human TREM2 [3] were 827 nM, 1540 nM and 475 nM, respectively.
